Consider three molecules from patent publication US6869925 (Amgen, dated 2005).

Positions count from the first letter of the chain named.

By Kd is commonly meant a measure of binding affinity in units of concentration. A higher Kd goes with a looser complex.

Data set [1] deals with SLPI binding sites on U937 cells (human monocyte cell line; intact cells, PMA-induced cells or plasma membranes) (human). As to the kind of experiment: competition with 125I-SLPI, U937 plasma membranes, competitor at 0.800 nM.
Data set [2] shares this target. The data set is described as follows: competition with 125I-SLPI, U937 plasma membranes, competitor at 83.9 nM.
For data set [3], the target named is SLPI binding sites on HuT78 cells (human T cell line) (human). As to the kind of experiment: competition with 125I-SLPI, intact HuT78 cells, competitor at 8.2 nM.
In data set [4] the target is SLPI binding sites on U937 cells (human monocyte cell line; intact cells, PMA-induced cells or plasma membranes) (human). The data set is described as follows: competition with 125I-SLPI, intact U937 cells, Kd by Cheng-Prusoff.
For data set [5] the target is unchanged. As to the kind of experiment: competition with 125I-SLPI, U937 plasma membranes, competitor at 8.20 nM.
Data set [6] addresses SLPI binding sites on HuT78 cells (human T cell line) (human). The data set is described as follows: competition with 125I-SLPI, intact HuT78 cells, competitor at 0 nM.
Data set [7] concerns the target SLPI binding sites on U937 cells (human monocyte cell line; intact cells, PMA-induced cells or plasma membranes) (human). The data set is described as follows: competition with 125I-SLPI, U937 plasma membranes, competitor at 0 nM.
The target is the same in data set [8]. As to the kind of experiment: competition with 125I-SLPI, intact U937 cells, competitor at 84 nM.
Data set [9] has the same target. As to the kind of experiment: competition with 125I-SLPI, intact U937 cells, competitor at 270 nM.
Data set [10] has the same target. As to the kind of experiment: competition with 125I-SLPI, U937 plasma membranes, competitor at 2.56 nM.
The target is the same in data set [11]. As to the kind of experiment: competition with 125I-SLPI, intact U937 cells, competitor at 0.078 nM.
Data set [12] has the same target. The data set is described as follows: competition with 125I-SLPI, intact U937 cells, competitor at 860 nM.
For data set [13] the target is unchanged. As to the kind of experiment: competition with 125I-SLPI, U937 plasma membranes, competitor at 0.800 nM (second GLY72 row).
Data set [14] has the same target. As to the kind of experiment: competition with 125I-SLPI, intact U937 cells, competitor at 26 nM.
Data set [15] concerns the target SLPI binding sites on HuT78 cells (human T cell line) (human). As to the kind of experiment: competition with 125I-SLPI, intact HuT78 cells, competitor at 2750 nM.
The target in data set [16] is SLPI binding sites on U937 cells (human monocyte cell line; intact cells, PMA-induced cells or plasma membranes) (human). The data set is described as follows: competition with 125I-SLPI, intact U937 cells, competitor at 0 nM.
Data set [17] has the same target. As to the kind of experiment: competition with 125I-SLPI, U937 plasma membranes, competitor at 268 nM.
Data set [18] shares this target. As to the kind of experiment: competition with 125I-SLPI, U937 plasma membranes, competitor at 2750 nM.
Data set [19] addresses SLPI binding sites on HuT78 cells (human T cell line) (human). The data set is described as follows: competition with 125I-SLPI, intact HuT78 cells, competitor at 0.80 nM.
Data set [20] deals with SLPI binding sites on U937 cells (human monocyte cell line; intact cells, PMA-induced cells or plasma membranes) (human). The data set is described as follows: competition with 125I-SLPI, intact U937 cells, competitor at 2.6 nM.
The target is the same in data set [21]. As to the kind of experiment: competition with 125I-SLPI, intact U937 cells, competitor at 0.80 nM.
For data set [22] the target is unchanged. The data set is described as follows: competition with 125I-SLPI, intact U937 cells, competitor at 8.2 nM.
The target is the same in data set [23]. The data set is described as follows: competition with 125I-SLPI, U937 plasma membranes, competitor at 268 nM (second GLY72 row).
Data set [24] has the same target. The data set is described as follows: competition with 125I-SLPI, U937 plasma membranes, competitor at 2.56 nM (second GLY72 row).
The target is the same in data set [25]. As to the kind of experiment: competition with 125I-SLPI, U937 plasma membranes, competitor at 0 nM (second GLY72 row).
Data set [26] shares this target. The data set is described as follows: competition with 125I-SLPI, intact U937 cells, competitor at 0.25 nM.
The target of data set [27] is SLPI binding sites on HuT78 cells (human T cell line) (human). As to the kind of experiment: competition with 125I-SLPI, intact HuT78 cells, competitor at 2.6 nM.
The target in data set [28] is SLPI binding sites on U937 cells (human monocyte cell line; intact cells, PMA-induced cells or plasma membranes) (human). The data set is described as follows: competition with 125I-SLPI, intact U937 cells, competitor at 2750 nM.
Data set [29] has as its target SLPI binding sites on HuT78 cells (human T cell line) (human). As to the kind of experiment: competition with 125I-SLPI, intact HuT78 cells, Kd by Cheng-Prusoff.
Data set [30] concerns the target SLPI binding sites on U937 cells (human monocyte cell line; intact cells, PMA-induced cells or plasma membranes) (human). The data set is described as follows: competition with 125I-SLPI, U937 plasma membranes, Kd by Cheng-Prusoff.
Data set [31] has as its target SLPI binding sites on HuT78 cells (human T cell line) (human). The data set is described as follows: competition with 125I-SLPI, intact HuT78 cells, competitor at 84 nM.
The target in data set [32] is SLPI binding sites on U937 cells (human monocyte cell line; intact cells, PMA-induced cells or plasma membranes) (human). As to the kind of experiment: competition with 125I-SLPI, U937 plasma membranes, competitor at 2750 nM (second GLY72 row).
For data set [33] the target is unchanged. As to the kind of experiment: competition with 125I-SLPI, intact U937 cells, competitor at 0.024 nM.
For data set [34] the target is unchanged. As to the kind of experiment: competition with 125I-SLPI, U937 plasma membranes, competitor at 83.9 nM (second GLY72 row).
The target is the same in data set [35]. As to the kind of experiment: competition with 125I-SLPI, U937 plasma membranes, competitor at 8.20 nM (second GLY72 row).
For data set [36], the target named is T1, human neutrophil elastase (human, UniProt P08246 30-247, limits assumed).
T1 construct: also called HNE
T1 sequence (looked up): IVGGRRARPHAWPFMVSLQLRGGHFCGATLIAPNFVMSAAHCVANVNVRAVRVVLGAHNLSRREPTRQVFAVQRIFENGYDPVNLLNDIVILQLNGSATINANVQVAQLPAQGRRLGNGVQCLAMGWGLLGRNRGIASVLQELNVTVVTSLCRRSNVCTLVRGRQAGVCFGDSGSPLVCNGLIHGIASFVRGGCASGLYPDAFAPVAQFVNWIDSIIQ
As to the kind of experiment: BIAcore, immobilized Phe72 mutein, monoS fractions of CHAPS-solubilized U937 membranes; identity by comigration. A general note: Surface plasmon resonance follows binding to a sensor surface in real time, without labels.
Source text: The BIAcore analytical system is available from Pharmacia Biosensor AB, Uppsala, Sweden.

Data set [37] concerns the molecule itself. The data set is described as follows: DSS crosslinking of 2 µM 125I-SLPI in the absence of virus, reducing SDS-PAGE, phosphor imager.
Procedure: Incubation was stopped by addition of Laemmli sample buffer. […] The volume of the parallel sample that was loaded on the gel was 5 times larger than the volume of the virus-containing samples.

Turning to “SLPI mutein Gly 72 (from UniProt P03973 26-132)”, the CPM *SLPI BOUND in [1] was determined as 14700 cpm; in data set [2] it was 3710 cpm; in data set [5], 7210 cpm; in data set [7], 18700 cpm; in data set [10], 12000 cpm; in [13] it was 14000 cpm. Also, the CPM *SLPI BOUND in data set [17] is 2840 cpm; in data set [18], 1780 cpm; in [23], 2530 cpm; in data set [24], 11300 cpm; in data set [25] it was 18700 cpm; in data set [32] it was 1430 cpm. For the same molecule, the CPM *SLPI BOUND in data set [34] was determined as 3940 cpm; in data set [35], 7300 cpm. The % *SLPI BOUND is 85% in data set [3]; 100% in data set [6]; 101% in data set [8]; 75% in [9]; 118% in [11]; 53% in data set [12]. For the same molecule, the % *SLPI BOUND turned out to be 112% in data set [14]; 28% in data set [15]; 131% in data set [16]; 108% in [19]; 115% in data set [20]; 116% in data set [21]. Also, the % *SLPI BOUND in data set [22] was determined as 117%; in data set [26] it was 120%; in [27], 105%; in data set [28] it was 28%; in data set [31], 110%; in data set [33], 116%. Moreover, the Kd in data set [4] is 400 nM; in data set [29], 200 nM; in data set [30], 5 nM.

B1: SLPI mutein Phe 72 (other, human, UniProt P03973 26-132, looked up)
chain: SGKSFKAGVCPPKKSAQCLRYKKPECQSDWQCPGKKRCCPDTCGIKCLDPVDTPNPTRRKPGKCPVTYGQCFMLNPPNFCEMDGQCKRDLKCCMGMCGKSCVSPVKA
notes: mature; also called Phe72 mutein
As to B1, the CPM *SLPI BOUND in data set [1] came out at 12400 cpm; in data set [2], 1660 cpm; in data set [5] it was 4260 cpm; in data set [7], 18700 cpm; in data set [10] it was 8920 cpm; in [17] it was 2580 cpm. This molecule yielded a CPM *SLPI BOUND in [18] of 1540 cpm. The % *SLPI BOUND in [3] was 57%; in [6], 100%; in data set [8] it was 4%; in data set [15] it was 1%; in data set [16], 94%; in data set [19] it was 69%. Moreover, the % *SLPI BOUND was determined as 51% in data set [20]; 77% in [21]; 22% in [22]; 90% in data set [27]; 5% in [28]; 36% in data set [31]. The dissociation constant Kd in data set [4] was found to be 2 nM; in data set [29], 3 nM; in [30], 1 nM. Besides, in data set [36], the binding result is reported as “binds”.

B2: serine leukocyte protease inhibitor (SLPI) (other, human, UniProt P03973 26-132, looked up)
chain: B1 chain with F72L
modifications: the tracer *SLPI carried I-125 (Bolton Hunter reagent in Examples 12-16, Iodogen in Example 19); positions not given
notes: mature; labelled and cold SLPI are treated as one molecule; also called *SLPI (radiolabelled); cold SLPI
With B2, in data set [37], the binding result was “binds”.
